Measurements as given in patent US12723078.

Legend:
[1] = target: recombinant LILRB1 (human) (UniProt Q8NHL6); experiment: Octet RED96, LILRB1 at 100, 33.3, 11.1 and 3.7 nM
[2] = target: LILRB1 expressed on cell surface (human) (UniProt Q8NHL6); experiment: flow cytometry on 2B4 cells expressing the LILR, PE
LILRA6 on reporter cells = LILRA6 on reporter cells (UniProt Q6PI73); experiment: as above
LILRA4 on reporter cells = LILRA4 on reporter cells (UniProt P59901); experiment: as above
LILRA2 on reporter cells = LILRA2 on reporter cells (UniProt Q8N149); experiment: as above
Chain of LILRA2 on reporter cells (Q8N149 24-483): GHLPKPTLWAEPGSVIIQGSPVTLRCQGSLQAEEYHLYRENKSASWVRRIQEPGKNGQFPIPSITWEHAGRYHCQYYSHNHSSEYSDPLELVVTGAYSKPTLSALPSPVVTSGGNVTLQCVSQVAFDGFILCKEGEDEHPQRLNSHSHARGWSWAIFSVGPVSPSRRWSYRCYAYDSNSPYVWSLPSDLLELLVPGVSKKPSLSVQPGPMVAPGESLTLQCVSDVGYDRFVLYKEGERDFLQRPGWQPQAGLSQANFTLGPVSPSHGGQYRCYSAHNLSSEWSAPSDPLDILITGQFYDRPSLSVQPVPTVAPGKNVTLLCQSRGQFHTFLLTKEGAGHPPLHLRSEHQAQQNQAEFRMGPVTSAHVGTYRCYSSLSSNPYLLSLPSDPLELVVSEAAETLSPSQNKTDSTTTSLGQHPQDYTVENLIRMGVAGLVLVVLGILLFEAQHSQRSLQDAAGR

LILRB5 on reporter cells = LILRB5 on reporter cells (UniProt O75023); experiment: as above
Chain of LILRB5 on reporter cells (O75023 24-590 limits assumed): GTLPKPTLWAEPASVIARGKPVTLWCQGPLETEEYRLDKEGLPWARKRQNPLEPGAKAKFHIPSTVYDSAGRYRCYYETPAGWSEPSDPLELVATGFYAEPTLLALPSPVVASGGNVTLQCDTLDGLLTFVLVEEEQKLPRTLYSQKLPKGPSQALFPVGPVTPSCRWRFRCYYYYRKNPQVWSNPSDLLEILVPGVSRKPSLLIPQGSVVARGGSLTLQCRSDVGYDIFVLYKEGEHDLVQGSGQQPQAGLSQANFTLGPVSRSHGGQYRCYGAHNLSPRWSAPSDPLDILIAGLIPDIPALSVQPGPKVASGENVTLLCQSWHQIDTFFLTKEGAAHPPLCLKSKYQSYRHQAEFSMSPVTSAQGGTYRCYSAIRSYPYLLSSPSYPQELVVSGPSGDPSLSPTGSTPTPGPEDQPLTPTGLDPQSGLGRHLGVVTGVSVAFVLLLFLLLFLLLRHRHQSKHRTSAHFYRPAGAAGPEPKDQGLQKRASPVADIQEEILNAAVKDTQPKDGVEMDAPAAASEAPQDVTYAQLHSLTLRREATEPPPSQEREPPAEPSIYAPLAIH

LILRB4 on reporter cells = LILRB4 on reporter cells (UniProt Q8NHJ6); experiment: as above
LILRB3 on reporter cells = LILRB3 on reporter cells (UniProt O75022); experiment: as above
LILRA1 on reporter cells = LILRA1 on reporter cells (UniProt O75019); experiment: as above
Chain of LILRA1 on reporter cells (O75019 17-489 limits assumed): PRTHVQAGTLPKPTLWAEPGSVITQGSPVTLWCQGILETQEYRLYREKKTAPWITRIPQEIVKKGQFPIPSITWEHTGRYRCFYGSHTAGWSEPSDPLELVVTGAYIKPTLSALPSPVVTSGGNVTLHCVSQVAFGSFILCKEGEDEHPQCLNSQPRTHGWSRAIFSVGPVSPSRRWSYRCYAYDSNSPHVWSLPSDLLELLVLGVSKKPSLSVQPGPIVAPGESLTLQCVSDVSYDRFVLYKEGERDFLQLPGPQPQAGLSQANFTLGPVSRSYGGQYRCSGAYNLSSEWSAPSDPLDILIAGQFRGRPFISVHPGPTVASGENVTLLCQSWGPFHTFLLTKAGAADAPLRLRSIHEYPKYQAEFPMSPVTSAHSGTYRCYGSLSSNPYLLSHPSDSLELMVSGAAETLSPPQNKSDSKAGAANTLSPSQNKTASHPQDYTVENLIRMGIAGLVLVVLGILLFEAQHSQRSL

LILRA5 on reporter cells = LILRA5 on reporter cells (UniProt A6NI73); experiment: as above
Chain of LILRA5 on reporter cells (A6NI73 42-299): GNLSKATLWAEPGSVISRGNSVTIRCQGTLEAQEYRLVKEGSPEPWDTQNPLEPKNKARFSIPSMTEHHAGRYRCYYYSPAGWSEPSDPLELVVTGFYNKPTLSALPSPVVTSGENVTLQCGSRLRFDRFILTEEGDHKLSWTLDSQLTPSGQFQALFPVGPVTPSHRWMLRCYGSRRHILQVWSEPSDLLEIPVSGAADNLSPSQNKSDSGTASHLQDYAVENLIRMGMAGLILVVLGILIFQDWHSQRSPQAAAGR

LILRB2 on reporter cells = LILRB2 on reporter cells (UniProt Q8N423); experiment: as above
Chain of LILRB2 on reporter cells (Q8N423 22-597): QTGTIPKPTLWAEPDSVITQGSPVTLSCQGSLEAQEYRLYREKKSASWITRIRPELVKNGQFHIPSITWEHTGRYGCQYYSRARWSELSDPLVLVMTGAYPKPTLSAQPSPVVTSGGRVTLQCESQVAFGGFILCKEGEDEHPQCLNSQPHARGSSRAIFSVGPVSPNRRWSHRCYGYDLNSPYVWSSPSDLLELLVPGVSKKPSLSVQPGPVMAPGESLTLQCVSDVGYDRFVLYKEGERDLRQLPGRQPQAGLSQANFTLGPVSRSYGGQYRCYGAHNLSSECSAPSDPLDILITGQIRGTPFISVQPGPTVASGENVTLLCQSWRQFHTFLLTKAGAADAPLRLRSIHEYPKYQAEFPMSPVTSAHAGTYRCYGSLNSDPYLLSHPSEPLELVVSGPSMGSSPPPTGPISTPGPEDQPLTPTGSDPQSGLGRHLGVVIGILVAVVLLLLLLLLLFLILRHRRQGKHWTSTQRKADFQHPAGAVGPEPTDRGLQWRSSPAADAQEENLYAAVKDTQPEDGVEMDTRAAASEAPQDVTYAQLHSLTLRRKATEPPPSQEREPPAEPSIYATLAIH

[3] = target: recombinant LILRB1 (human) (UniProt Q8NHL6); experiment: ELISA, control

Chain of LILRA4 on reporter cells (P59901 24-499): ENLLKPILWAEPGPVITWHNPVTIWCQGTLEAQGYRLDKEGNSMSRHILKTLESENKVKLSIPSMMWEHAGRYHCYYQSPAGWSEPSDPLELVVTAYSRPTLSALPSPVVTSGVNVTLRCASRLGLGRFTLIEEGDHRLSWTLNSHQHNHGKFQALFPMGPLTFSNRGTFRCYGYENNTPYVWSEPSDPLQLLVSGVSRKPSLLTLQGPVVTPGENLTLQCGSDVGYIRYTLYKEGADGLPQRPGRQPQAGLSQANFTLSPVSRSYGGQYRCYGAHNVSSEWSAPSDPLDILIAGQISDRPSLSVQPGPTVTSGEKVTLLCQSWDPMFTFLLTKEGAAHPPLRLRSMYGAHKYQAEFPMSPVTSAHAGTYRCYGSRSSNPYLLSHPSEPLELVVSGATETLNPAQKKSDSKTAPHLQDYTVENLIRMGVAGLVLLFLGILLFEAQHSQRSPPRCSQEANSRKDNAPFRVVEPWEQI
Chain of recombinant LILRB1 (human) (Q8NHL6 24-461 limits assumed): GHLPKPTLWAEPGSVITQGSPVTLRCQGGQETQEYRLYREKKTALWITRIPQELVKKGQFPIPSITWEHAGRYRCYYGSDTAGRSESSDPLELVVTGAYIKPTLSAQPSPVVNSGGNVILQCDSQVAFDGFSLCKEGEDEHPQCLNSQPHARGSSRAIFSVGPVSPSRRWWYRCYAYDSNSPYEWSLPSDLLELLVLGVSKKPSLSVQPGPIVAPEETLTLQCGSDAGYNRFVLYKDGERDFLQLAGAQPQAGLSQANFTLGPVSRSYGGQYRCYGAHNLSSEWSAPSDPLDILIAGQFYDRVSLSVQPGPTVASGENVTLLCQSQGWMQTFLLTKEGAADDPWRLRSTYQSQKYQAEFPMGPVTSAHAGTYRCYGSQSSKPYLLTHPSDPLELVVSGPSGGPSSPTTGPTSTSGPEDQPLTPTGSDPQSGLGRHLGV
Chain of LILRA6 on reporter cells (Q6PI73 24-481): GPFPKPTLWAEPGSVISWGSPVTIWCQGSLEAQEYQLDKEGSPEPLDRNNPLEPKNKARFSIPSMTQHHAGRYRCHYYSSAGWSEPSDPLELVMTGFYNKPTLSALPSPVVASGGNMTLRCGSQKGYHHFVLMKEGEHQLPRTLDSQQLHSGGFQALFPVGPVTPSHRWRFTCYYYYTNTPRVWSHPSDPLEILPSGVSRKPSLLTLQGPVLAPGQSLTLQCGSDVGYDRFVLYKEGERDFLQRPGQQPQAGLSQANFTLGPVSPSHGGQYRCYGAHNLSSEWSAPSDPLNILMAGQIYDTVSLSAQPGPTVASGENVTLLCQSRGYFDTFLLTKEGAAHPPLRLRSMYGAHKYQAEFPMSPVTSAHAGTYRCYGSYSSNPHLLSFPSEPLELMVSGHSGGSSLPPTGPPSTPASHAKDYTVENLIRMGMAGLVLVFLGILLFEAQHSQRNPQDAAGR
Chain of LILRB1 expressed on cell surface (human) (Q8NHL6 24-650 limits assumed): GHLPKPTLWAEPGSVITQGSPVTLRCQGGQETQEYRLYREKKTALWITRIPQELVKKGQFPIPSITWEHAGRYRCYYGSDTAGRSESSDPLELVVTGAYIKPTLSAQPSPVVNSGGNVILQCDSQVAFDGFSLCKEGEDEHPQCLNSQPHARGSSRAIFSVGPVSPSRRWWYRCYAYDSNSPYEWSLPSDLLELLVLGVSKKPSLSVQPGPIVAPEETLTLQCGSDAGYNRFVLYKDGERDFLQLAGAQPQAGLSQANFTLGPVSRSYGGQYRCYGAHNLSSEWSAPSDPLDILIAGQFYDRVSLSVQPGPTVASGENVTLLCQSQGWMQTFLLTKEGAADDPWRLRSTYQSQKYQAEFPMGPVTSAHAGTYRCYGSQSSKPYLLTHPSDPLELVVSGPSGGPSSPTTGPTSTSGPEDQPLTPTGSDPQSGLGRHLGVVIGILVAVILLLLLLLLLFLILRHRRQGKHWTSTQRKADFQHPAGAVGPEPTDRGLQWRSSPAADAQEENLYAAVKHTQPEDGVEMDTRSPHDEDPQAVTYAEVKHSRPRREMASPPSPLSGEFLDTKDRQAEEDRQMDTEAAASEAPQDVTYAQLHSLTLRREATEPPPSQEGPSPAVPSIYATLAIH

| Kd [1] | percent of cells in the gate [2] | percent of cells in the gate (LILRA6 on reporter cells) | percent of cells in the gate (LILRA4 on reporter cells) | percent of cells in the gate (LILRA2 on reporter cells) | percent of cells in the gate (LILRB5 on reporter cells) | percent of cells in the gate (LILRB4 on reporter cells) | percent of cells in the gate (LILRB3 on reporter cells) | percent of cells in the gate (LILRA1 on reporter cells) | percent of cells in the gate (LILRA5 on reporter cells) | percent of cells in the gate (LILRB2 on reporter cells) | OD450 [3] | Substance |
| --- | --- | --- | --- | --- | --- | --- | --- | --- | --- | --- | --- | --- |
| 5.13 nM | 98.8% | 0.273% | 0.16% | 1.25% | 0.558% | 0.524% | 0.867% | 1.22% | 0.219% | 1.58% | – | GHI/75 (commercial anti-LILRB1 monoclonal antibody) |
| – | 96.3% | 0.199% | 0.27% | 0.334% | 0.359% | 0.466% | 0.239% | 0.249% | 0.282% | 0.65% | – | R&D 292319 (antibody) |
| – | – | – | – | – | – | – | – | – | – | – | 0.1 OD450 | Ctrl |
| 8.26 nM | 98.5% | 0.144% | 0.301% | 85.3% | 0.0127% | 0.0568% | 0.196% | 80.8% | 0.343% | 1.52% | – | HP-F1 (commercial anti-LILRB1 monoclonal antibody) |
